Measured values from patent publication US20150368316A1 (ALBERT EINSTEIN COLLEGE OF MEDICINE OF YESHIVA UNIVERSITY, published 2015).

T1: human PD-L2-Ig (immobilized) (human, UniProt Q9BQ51 20-219)
T1 construct: also called huPD-L2; huPD-L2-Ig; not shown: Ig part of the fusion
T1 sequence (looked up): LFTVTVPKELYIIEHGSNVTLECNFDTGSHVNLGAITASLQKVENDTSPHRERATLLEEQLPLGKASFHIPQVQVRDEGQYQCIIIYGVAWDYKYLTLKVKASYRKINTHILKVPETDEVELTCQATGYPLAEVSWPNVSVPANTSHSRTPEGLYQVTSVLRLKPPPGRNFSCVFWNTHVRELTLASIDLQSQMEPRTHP

T2: mouse PD-L2-Ig (mouse, UniProt Q9WUL5 20-219)
T2 construct: also called mPD-L2-Ig; not shown: Ig part of the fusion
T2 sequence (looked up): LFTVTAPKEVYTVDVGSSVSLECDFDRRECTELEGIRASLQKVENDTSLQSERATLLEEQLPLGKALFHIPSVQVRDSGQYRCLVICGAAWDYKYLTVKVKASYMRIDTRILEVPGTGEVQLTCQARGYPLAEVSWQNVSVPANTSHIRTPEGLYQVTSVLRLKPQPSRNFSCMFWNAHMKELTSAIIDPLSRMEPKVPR

B1: mouse PD-1 (wild type) (receptor, UniProt Q02242 34-150, looked up)
chain: SLTFYPAWLTVSEGANATFTCSLSNWSEDLMLNWNRLSPSNQTEKQAAFCNGLSQPVQDARFQIIQLPNRHDFHMNILDTRRNDSGIYLCGAISLHPKAKIEESPGAELVVTERILE
notes: also called m PD-1
B2: mouse HA PD-1 (high-affinity mutant) (receptor, UniProt Q02242 34-150, looked up)
chain: SLTFYPAWLTVSEGANATFTCSLSNWSEDLMLNWNRLSPSNQTEKQAAFCNGLSQPVQDARFQIIQLPNRHDFHMNILDTRRNDSGIYLCGAISLHPKLKIEESPGAELVVTERILE
notes: also called m HA PD-1

Experiments:
Assay in all cases: Kd from fitting (SPR)
[1] = target: T3, human PD-L1-Ig (immobilized) (human, UniProt Q9NZQ7 19-238)
T3 construct: also called huPD-L1; huPD-L1-Ig; not shown: Ig part of the fusion

[2] = target: T1, human PD-L2-Ig (immobilized)
mouse PD-L2-Ig = target: T2, mouse PD-L2-Ig
mouse PD-L1-Ig = target: T4, mouse PD-L1-Ig (mouse, UniProt Q9EP73 19-238)
T4 construct: also called mPD-L1-Ig; not shown: Ig part of the fusion
T4 sequence (Q9EP73 19-238): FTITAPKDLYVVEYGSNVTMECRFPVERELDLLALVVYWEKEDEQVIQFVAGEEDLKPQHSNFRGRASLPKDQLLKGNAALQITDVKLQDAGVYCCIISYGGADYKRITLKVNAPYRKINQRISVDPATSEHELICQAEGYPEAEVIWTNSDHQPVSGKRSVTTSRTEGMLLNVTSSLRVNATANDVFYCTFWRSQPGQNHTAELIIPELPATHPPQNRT

T3 sequence (Q9NZQ7 19-238): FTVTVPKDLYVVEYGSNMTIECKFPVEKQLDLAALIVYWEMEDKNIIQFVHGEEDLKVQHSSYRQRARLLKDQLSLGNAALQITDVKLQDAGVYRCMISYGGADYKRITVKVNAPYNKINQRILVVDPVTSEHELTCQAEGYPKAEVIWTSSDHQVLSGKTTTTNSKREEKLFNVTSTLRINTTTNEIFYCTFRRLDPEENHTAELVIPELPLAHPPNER

Row | Binder | Kd [1] | Kd [2] | Kd (mouse PD-L2-Ig) | Kd (mouse PD-L1-Ig)
1 | B1 | 4020 nM | 10700 nM | 2800 nM | –
2 | B2 | 480 nM | 1180 nM | 470 nM | 2780 nM
